Common to all, as to experiment: SEC
The target of assay [1] is S2P-1208.H8 (ancestral Hu-1) (SARS CoV-2 (ancestral Hu-1 isolate)) (UniProt P0DTC2).
The target of assay [2] is S2P.OmiBA1-FHA (SARS CoV-2 (Omicron BA.1) | bacteriophage T4).
For assay [3], the target named is S2P.OmiBA1-1208.H8 (SARS CoV-2 (Omicron BA.1)).
The target in assay [4] is S2P.OmiBA.4/5-1208.H8 (SARS CoV-2 (Omicron BA.4/5)).

Results on 4 substances are retold here after paper doi:10.1101/2022.11.08.515567.

As usually defined, the stoichiometry N is the number of molecules, sites or subunits per partner or assembly.

In turn, “S2P-1208.H8 (ancestral Hu-1) (from UniProt P0DTC2 16-1208) (domain or fragment)” had a stoichiometry N in assay [1] of 2.
With S2P.OmiBA1-FHA (domain or fragment), the stoichiometry N in assay [2] was determined as 3.
Consider S2P.OmiBA1-1208.H8 (domain or fragment), for which, in assay [3], the percent dissociated to dimer after a freeze-thaw cycle was 15% and the stoichiometry N came to 3.
In turn, “S2P.OmiBA.4/5-1208.H8 (domain or fragment)” came in with a stoichiometry N in assay [4] of 3.
